Values of other authors as cited in paper PMC4716630.

Molecular target: hMSH2 (Homo sapiens) (UniProt P43246)
Sequence (P43246 2-934): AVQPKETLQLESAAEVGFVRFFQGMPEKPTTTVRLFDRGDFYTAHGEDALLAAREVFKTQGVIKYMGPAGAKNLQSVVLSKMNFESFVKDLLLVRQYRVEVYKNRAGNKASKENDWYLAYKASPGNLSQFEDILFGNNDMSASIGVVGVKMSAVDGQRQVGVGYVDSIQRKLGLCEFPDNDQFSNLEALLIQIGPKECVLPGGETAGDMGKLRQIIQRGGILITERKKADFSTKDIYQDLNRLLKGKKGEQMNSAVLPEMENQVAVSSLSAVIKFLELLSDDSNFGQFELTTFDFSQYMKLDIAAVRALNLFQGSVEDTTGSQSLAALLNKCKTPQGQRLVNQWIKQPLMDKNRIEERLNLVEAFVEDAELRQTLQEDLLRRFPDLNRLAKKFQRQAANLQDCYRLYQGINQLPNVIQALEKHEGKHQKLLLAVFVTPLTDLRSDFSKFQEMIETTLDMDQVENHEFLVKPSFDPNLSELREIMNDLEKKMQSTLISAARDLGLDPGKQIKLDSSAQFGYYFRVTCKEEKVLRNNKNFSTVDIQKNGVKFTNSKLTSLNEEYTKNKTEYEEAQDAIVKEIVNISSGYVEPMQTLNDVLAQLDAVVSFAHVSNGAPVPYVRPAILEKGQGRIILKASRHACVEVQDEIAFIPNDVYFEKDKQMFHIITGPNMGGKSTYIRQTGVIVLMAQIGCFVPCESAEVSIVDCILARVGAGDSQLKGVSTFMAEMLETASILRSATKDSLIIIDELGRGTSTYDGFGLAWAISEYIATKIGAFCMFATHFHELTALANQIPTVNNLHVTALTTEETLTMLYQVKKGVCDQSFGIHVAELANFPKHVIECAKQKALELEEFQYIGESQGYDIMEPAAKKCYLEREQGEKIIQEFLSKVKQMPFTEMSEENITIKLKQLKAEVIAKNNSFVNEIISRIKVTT

NKG2D, sequence (P26718 whole entry): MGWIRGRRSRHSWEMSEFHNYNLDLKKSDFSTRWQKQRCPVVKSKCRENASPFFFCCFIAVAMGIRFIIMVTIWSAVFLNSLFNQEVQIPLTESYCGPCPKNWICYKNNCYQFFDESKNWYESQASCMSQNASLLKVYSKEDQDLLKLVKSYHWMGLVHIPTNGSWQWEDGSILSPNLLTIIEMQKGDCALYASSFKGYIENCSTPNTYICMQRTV

Q: Which Kd does the source give for NKG2D (from UniProt P26718) here?
A: 132 nM
